Laboratory results reported in US20240059799A1 (Pfizer, published 2024).
Positions count from the first letter of the chain named. Blank lines part the entries; values can stand above or below the binder they belong to.

Experiments:
cynomolgus monkey IL-12 [1] = target: T1, cynomolgus monkey IL-12 (cynomolgus monkey); assay: cell-based or functional assay
T1 chain 1: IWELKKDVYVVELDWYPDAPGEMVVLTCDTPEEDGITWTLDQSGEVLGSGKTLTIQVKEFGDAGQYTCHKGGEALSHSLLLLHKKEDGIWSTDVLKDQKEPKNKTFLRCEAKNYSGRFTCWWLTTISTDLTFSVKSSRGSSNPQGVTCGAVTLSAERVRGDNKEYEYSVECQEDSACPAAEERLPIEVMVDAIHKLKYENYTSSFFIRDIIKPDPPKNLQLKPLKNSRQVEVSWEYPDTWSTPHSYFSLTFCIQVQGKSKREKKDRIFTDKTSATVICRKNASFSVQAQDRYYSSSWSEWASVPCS
T1 chain 2: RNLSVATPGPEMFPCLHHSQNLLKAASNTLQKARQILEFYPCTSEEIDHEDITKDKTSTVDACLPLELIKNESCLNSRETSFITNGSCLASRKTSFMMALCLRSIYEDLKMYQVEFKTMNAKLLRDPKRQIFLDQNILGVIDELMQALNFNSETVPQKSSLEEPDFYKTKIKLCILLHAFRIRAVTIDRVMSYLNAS

cynomolgus monkey IL-23 [2] = target: T2, cynomolgus monkey IL-23 (cynomolgus monkey, limits assumed); assay: cell-based or functional assay
T2 chain 1: T1 chain 1
T2 chain 2: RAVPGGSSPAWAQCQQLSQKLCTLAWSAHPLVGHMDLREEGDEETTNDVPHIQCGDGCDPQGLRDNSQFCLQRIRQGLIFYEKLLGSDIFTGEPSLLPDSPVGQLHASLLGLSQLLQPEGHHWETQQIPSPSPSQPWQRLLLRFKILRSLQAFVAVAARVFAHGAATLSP

human IL-23 [3] = target: T3, human IL-23 (human, UniProt P29460 23-328; Q9NPF7 20-189); assay: cell-based or functional assay
T3 sequence 1: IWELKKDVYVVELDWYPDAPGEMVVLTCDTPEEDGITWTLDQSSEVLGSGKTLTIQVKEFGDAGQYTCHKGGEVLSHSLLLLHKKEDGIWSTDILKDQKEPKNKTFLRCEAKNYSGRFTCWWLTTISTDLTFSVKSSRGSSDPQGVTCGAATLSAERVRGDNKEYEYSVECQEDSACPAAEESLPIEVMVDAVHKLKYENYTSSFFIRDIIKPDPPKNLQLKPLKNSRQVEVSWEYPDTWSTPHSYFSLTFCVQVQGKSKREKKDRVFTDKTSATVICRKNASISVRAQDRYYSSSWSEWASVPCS
T3 sequence 2: T2 chain 2 with A12T, R75H, P131L

[4] = target: T4, recombinant cynomolgus monkey TL1A (cynomolgus monkey, UniProt O95150 72-251 (human entry)); assay: cell-based or functional assay
T4 chain: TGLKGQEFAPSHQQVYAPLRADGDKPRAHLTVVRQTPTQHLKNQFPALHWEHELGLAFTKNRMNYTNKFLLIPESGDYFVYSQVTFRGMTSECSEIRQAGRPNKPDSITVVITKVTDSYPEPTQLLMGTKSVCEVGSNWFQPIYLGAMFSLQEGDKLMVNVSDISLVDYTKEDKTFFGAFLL

recombinant human TL1A [5] = target: T5, recombinant human TL1A (human, UniProt O95150 71-251); assay: cell-based or functional assay
T5 chain: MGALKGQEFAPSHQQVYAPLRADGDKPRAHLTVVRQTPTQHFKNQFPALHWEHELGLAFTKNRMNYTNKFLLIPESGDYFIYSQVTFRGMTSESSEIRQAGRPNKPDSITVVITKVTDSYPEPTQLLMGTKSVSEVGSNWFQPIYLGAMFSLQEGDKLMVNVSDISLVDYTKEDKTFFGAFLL

human IL-12 = target: T6, human IL-12 (human, UniProt P29460 23-328; P29459 23-219); assay: cell-based or functional assay
T6 sequence 1: T3 sequence 1
T6 sequence 2: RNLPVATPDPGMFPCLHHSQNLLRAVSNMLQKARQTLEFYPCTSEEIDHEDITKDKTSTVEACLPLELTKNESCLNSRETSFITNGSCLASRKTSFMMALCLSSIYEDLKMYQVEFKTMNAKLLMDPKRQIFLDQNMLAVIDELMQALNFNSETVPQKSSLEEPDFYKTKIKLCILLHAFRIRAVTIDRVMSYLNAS

cynomolgus monkey IL-12 [6] = target: T7, cynomolgus monkey IL-12 (cynomolgus monkey); assay: cell-based or functional assay
T7 chain 1: T1 chain 1
T7 chain 2: T1 chain 2

human IL-23 [7] = target: T8, human IL-23 (human, UniProt P29460 23-328; Q9NPF7 20-189); assay: cell-based or functional assay; remark: listed apart in the source
T8 sequence 1: T3 sequence 1
T8 sequence 2: T2 chain 2 with A12T, R75H, P131L

cynomolgus monkey IL-23 [8] = target: T9, cynomolgus monkey IL-23 (cynomolgus monkey, limits assumed); assay: cell-based or functional assay
T9 chain 1: T1 chain 1
T9 chain 2: T2 chain 2

human IL-23 [9] = target: T8, human IL-23; assay: SPR, 37 C; antibody captured by anti-human Fc, human IL-23 injected
Procedure: (§1) SPR was utilized to determine if the affinity constants of each arm of the bispecific variants binding human IL-23, containing the p40 subunit, and human TL1A were the same for each bispecific approach. For the analysis of the p40 binding arm, kinetic assays were conducted at 37° C. using a collection rate of 10 Hz on a Biacore™ 8 K+ instrument (GE Healthcare). An anti-human IgG antibody (anti-human Fc, GE Healthcare, 22-0648-88) was amine coupled to all four flow cells of a carboxymethylated dextran coated sensor chip (GE Healthcare,) using the manufacturer's recommended protocol. […] For the analysis of the TL1A binding arm, kinetic assays were conducted at 37° C. using a collection rate of 10 Hz on a Biacore™ T200 instrument (GE Healthcare).
(§2) As described above in EXAMPLE 12, SPR was utilized to determine if the affinity constants of each arm of the bispecific variants binding human IL-23, containing the p40 subunit, and human TL1A were the same for each bispecific variant.

recombinant human TL1A [10] = target: T10, recombinant human TL1A (human, UniProt O95150 71-251); assay: SPR, 37 C; biotinylated human TL1A captured on Biotin CAPture chip, antibody injected
T10 construct: TL1A is described as a homotrimer; Biotinylated for SPR capture; also called TNFSF15
T10 chain: T5 chain
Procedure: as §1, §2

KIT-225 STAT4 phosphorylation, fold-change of potency across species (human against cynomolgus monkey IL-12) (cynomolgus monkey IL-12 [1]): 1.2 fold
KIT-225 STAT3 phosphorylation, fold-change of potency across species (human against cynomolgus monkey IL-23) (cynomolgus monkey IL-23 [2]): 1.2 fold
STAT3 activation in human whole blood, fold decreased potency (IC50) compared to p40-0003 (human IL-23 [3]): ~2.9 fold
NF-κB assay in TF-1 reporter cells, fold-change of neutralization across species (human against cynomolgus monkey TL1A) [4]: 1.7 fold
NF-κB assay in TF-1 reporter cells, neutralization relative to TL1A-0002 (recombinant human TL1A [5]): ≤ 2 fold
STAT4 activation in human whole blood, fold decreased potency (IC50) compared to p40-0003 (human IL-12): ~2.9 fold
B1: p40TL1A-0033 (bispecific antibody, human IgG1, kappa)
chain 1: not shown
chain 2: QVQLVQSGAEVKKPGASVKVSCKASGYDYTYYGISWVRQAPGQGLEWMGWISTYNTGTHYAPSLQGRVTMTTDTSTSTAYMELRSLRSDDTAVYYCARESYYGSGAFRGGMDVWGQGTTVTVSSASTKGPSVFPLAPSSKSTSGGTAALGCLVKDYFPEPVTVSWNSGALTSGVHTFPAVLQSSGLYSLSSVVTVPSSSLGTQTYICNVNHKPSNTKVDKKVEPKSC
heavy: EVQLVQSGAEVKKPGESLKISCKGSGYSFTTYWLGWVRQMPGKGLDWIGIMSPVDSDIRYSPSFQGQVTMSVDKSITTAYLQWNSLKASDTAMYYCARRRPGQGYFDFWGQGTLVTVSSASTKGPSVFPLAPSSKSTSGGTAALGCLVKDYFPEPVTVSWNSGALTSGVHTFPAVLQSSGLYSLSSVVTVPSSSLGTQTYICNVNHKPSNTKVDKKVEPKSCDKTHTCPPCPAPEAAGAPSVFLFPPKPKDTLMISRTPEVTCVVVDVSHEDPEVKFNWYVDGVEVHNAKTKPREEQYNSTYRVVSVLTVLHQDWLNGKEYKCKVSNKALPAPIEKTISKAKGQPREPQVCTLPPSREEMTKNQVSLWCLVKGFYPSDIAVEWESNGQPENNYKTTPPVLDSDGSFFLYSKLTVDKSRWQQGNVFSCSVLHEALHSHYTQKSLSLSPGK
light: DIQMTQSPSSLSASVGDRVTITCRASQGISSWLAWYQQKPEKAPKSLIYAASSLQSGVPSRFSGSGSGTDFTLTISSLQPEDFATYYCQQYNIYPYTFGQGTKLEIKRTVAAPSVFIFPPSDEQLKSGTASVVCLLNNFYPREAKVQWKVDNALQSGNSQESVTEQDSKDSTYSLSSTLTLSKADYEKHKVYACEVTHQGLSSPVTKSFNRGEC
notes: KiH modified-Fd bispecific: TL1A VL-CL-Fc (hole), TL1A mFd, p40 HC (knob), p40 LC; LS

KIT-225 STAT4 phosphorylation, Cynomolgus Monkey IL-12 IC50 (cynomolgus monkey IL-12 [6]): 0.95 nM
KIT-225 STAT3 phosphorylation, Human IL-23 IC50 (human IL-23 [7]): 3.73 nM
KIT-225 STAT3 phosphorylation, Cynomolgus Monkey IL-23 IC50 (cynomolgus monkey IL-23 [8]): 4.34 nM
koff (human IL-23 [9]): 0.00056 s⁻¹
kon (human IL-23 [9]): 2.28e+06 M⁻¹ s⁻¹
Kd (recombinant human TL1A [10]): 0.622 nM
koff (recombinant human TL1A [10]): 8.21e-05 s⁻¹
kon (recombinant human TL1A [10]): 132000 M⁻¹ s⁻¹
B2: p40TL1A-0033 bispecific antibody (bispecific antibody, human IgG1, kappa)
heavy: B1 heavy
light: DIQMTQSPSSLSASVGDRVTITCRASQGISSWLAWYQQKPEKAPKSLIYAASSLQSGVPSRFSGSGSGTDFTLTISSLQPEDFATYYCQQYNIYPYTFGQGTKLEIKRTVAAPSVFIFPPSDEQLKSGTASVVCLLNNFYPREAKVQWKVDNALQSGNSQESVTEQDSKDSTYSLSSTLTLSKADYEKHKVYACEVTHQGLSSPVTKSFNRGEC
chain 1: not shown
chain 2: B1 chain 2
notes: Single cell KiH, modified Fd format; IgG1 effector-function-minimized Fc with LS mutations
